We go through 3 molecules from PMC10397247.

Common to all, as to experiment: two-hybrid library CCNG1;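 also: natural log of median RNA to DNA barcode read ratio; higher means stronger binding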
For one assay, the target named is T1, 4H235-bA.
T1 chain: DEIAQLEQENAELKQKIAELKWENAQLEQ

The target in another assay is T2, 4H2444-bA.
T2 chain: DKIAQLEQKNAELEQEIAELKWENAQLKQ

For another assay, the target named is T3, 4H2518-bA.
T3 chain: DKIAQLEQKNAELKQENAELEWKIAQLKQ

The next assay has as its target T4, 4H2585-bA.
T4 chain: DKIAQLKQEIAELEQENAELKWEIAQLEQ

The next assay addresses T5, 4H264-bA.
T5 chain: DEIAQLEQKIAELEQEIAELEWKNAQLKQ

A further assay has as its target T6, 4H2760-bA.
T6 chain: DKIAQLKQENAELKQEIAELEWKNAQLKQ

In another assay the target is T7, 4H2859-bA.
T7 chain: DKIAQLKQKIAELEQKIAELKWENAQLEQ

Another assay addresses T8, 4H2931-bA.
T8 chain: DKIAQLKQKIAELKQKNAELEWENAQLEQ

The target in the next assay is T9, 4H3041-bA.
T9 chain: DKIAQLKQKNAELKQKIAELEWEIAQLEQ

The next assay addresses T10, 4H3297-bA.
T10 chain: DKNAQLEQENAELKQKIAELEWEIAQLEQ

For another assay, the target named is T11, 4H331-bA.
T11 chain: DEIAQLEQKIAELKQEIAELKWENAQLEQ

The target in another assay is T12, 4H3364-bA.
T12 chain: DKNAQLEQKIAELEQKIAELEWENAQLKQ

Another assay deals with T13, 4H3381-bA.
T13 chain: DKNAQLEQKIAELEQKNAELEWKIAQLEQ

A further assay concerns the target T14, 4H349-bA.
T14 chain: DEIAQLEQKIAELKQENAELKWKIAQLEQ

Another assay has as its target T15, 4H454-bA.
T15 chain: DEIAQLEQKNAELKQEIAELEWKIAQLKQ

Another assay addresses T16, 4H56-bA.
T16 chain: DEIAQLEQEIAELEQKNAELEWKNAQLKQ

The target in the next assay is T17, 4H575-bH.
T17 chain: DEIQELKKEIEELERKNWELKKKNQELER

Another assay has as its target T18, 4H730-bA.
T18 chain: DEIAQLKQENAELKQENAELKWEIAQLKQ

The next assay deals with T19, 4H796-bA.
T19 chain: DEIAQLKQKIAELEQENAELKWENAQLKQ

The target in the next assay is T20, 4H932-bA.
T20 chain: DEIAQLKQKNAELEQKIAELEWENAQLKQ

The next assay concerns the target T21, 4H949-bA.
T21 chain: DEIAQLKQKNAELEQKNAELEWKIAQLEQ

Another assay concerns the target T22, 4H2588-bH.
T22 chain: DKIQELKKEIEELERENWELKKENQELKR

The next assay deals with T23, 4H2692-bH.
T23 chain: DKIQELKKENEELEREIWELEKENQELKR

The next assay concerns the target T24, 4H2717-bH.
T24 chain: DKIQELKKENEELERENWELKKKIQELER

In another assay the target is T25, 4H2839-bH.
T25 chain: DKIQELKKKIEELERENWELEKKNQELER

The next assay deals with T26, 4H2915-bH.
T26 chain: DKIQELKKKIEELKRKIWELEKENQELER

Another assay addresses T27, 4H3057-bH.
T27 chain: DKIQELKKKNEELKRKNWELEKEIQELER

For another assay, the target named is T28, 4H319-bH.
T28 chain: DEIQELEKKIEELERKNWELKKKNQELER

For another assay, the target named is T29, 4H3277-bH.
T29 chain: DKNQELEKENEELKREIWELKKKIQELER

In a further assay the target is T30, 4H338-bA.
T30 chain: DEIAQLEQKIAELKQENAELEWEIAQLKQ

The target in a further assay is T31, 4H40-bH.
T31 chain: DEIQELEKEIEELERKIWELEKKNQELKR

Another assay has as its target T32, 4H477-bH.
T32 chain: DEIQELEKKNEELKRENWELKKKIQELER

For the next assay, the target named is T33, 4H492-bH.
T33 chain: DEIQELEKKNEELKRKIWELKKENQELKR

The target in another assay is T34, 4H741-bH.
T34 chain: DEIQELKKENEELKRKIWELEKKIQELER

A further assay addresses T35, P7SH.
T35 chain: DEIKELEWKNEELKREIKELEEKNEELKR

For another assay, the target named is T36, 4H2438-bH.
T36 chain: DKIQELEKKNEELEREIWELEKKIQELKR

A further assay has as its target T37, 4H2473-bH.
T37 chain: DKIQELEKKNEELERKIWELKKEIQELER

Another assay has as its target T38, 4H2503-bH.
T38 chain: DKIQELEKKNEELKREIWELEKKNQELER

In another assay the target is T39, 4H348-bH.
T39 chain: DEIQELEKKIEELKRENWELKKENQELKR

DEIAQLEQENAELKQKIAELKWENAQLEQ [4H235-bA]: the interaction score is 0.082 with 4H235-bA; -0.488 with 4H2444-bA; -0.69 in the assay with 4H2518-bA; -0.367 with 4H2585-bA; -0.636 with 4H264-bA; 1.96 in the assay with 4H2760-bA. Moreover, the interaction score is -0.319 in the assay with 4H2859-bA; -0.643 with 4H2931-bA; 0.563 with 4H3041-bA; -0.354 in the assay with 4H3297-bA; -2 with 4H331-bA; -0.845 with 4H3364-bA. The interaction score in the assay with 4H3381-bA was -0.985; with 4H349-bA, -0.682; in the assay with 4H454-bA it was 0.0882; with 4H56-bA, -1.05; in the assay with 4H575-bH, -3.02; with 4H730-bA, -0.952. Moreover, the interaction score with 4H796-bA was -0.862; with 4H932-bA, -0.974; in the assay with 4H949-bA, -0.885.
For DKIQELKKEIEELERENWELKKENQELKR [4H2588-bH], the interaction score in the assay with 4H2588-bH is 0.98; with 4H2692-bH, 0.605; in the assay with 4H2717-bH, -0.116; with 4H2839-bH, 1.07; in the assay with 4H2915-bH, 1.07; with 4H3057-bH, 0.192. Moreover, the interaction score is 0.617 in the assay with 4H319-bH; -0.69 with 4H3277-bH; 0.393 in the assay with 4H338-bA; -0.884 with 4H40-bH; -0.292 in the assay with 4H477-bH; -1.5 with 4H492-bH. The interaction score was 0.417 with 4H741-bH and -0.241 with P7SH.
Turning to DKIQELEKKNEELEREIWELEKKIQELKR [4H2438-bH], the interaction score was -0.05 in the assay with 4H2438-bH; 1.01 in the assay with 4H2473-bH; 0.644 with 4H2503-bH; -0.0625 in the assay with 4H2588-bH; 0.322 with 4H2692-bH; 0.187 with 4H2717-bH. Besides, the interaction score with 4H2839-bH was 0.0743; with 4H2915-bH, 1.73; in the assay with 4H3057-bH, 1.41; in the assay with 4H319-bH, -1.85; in the assay with 4H3277-bH, -0.355; with 4H348-bH, -0.861. In addition, the interaction score with 4H40-bH is -0.00537; with 4H477-bH, 0.358; with 4H492-bH, -0.644; with 4H741-bH, -0.318.
